Columns and labels:
[1] = target: T1, Glycine max agglutinin (Glycine max, UniProt P05046 33-285, biotinylated); assay: biotinylated lectin blot of shed proteins
T1 construct: Lectin; also called SBA

[2] = target: T2, Ulex europeus agglutinin-1 (Ulex europeus, UniProt P22972 1-243, biotinylated); assay: biotinylated lectin blot of shed proteins
T2 construct: Lectin; also called UEA-1
T2 sequence: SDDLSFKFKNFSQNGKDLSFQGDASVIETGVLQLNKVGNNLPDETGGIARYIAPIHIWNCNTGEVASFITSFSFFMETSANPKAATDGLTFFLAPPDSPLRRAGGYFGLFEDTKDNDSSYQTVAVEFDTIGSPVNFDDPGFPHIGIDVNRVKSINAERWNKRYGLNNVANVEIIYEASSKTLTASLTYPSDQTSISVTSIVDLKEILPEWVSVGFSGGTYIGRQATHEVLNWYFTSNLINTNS

T1 sequence (P05046 33-285 limits assumed): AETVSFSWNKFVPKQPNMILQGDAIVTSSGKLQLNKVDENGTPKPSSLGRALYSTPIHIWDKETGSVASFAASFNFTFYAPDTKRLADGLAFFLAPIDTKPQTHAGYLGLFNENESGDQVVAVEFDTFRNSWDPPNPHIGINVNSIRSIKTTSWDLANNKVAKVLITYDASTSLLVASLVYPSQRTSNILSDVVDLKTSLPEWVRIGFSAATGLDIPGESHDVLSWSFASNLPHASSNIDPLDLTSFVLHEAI

B1: gp40 (native 40 kDa glycoprotein of Cryptosporidium parvum) (other)
chain: DVPVEGSSSSSSSSSSSSSSSSSSSTSTVAPANKARTGEDAEGSQDSSGTEASGSQGSEEEGSEDDGQTSAASQPTTPAQSEGATTETIEATPKEECGTSFVMWFGEGTPAATLKCGAYTIVYAPIKDQTDPAPRYISGEVTSVTFEKSDNTVKIKVNGQDFSTLSANSSSPTENGGSAGQASSRSRRSLSE
modifications: native glycoprotein: O-linked glycans with terminal α-linked GalNAc on Ser/Thr
notes: Native protein from oocysts, sporozoites, shed proteins or HPA-purified lysate; also called 40,000 Mr peptide; 40 kDa band
B1: binds [1]; binds [2].

Reference: US6657045 (NEW ENGLAND MEDICAL CENTER HOSPITALS, dated 2003)
